The target in the assay is complex III (ubiquinone cytochrome C oxidoreductase) (mouse (endogenous in cerebellum)) (UniProt Q9CZ13). The assay can be described thus: native gel or EMSA; blue native PAGE (4 to 12% NativePAGE) of cerebellum mitochondria solubilised in 1% digitonin, WT and Mecr285/del10 mice; transferred to PVDF and immunoblotted; in-gel activity assays on parallel gels.

Regarding “complex III (ubiquinone cytochrome C oxidoreductase) (from UniProt Q9CZ13 35-480)”, the stoichiometry N (as a rule, the number of molecules, sites or subunits per partner or assembly) was 2.

Source of the values: paper PMC12519216.
